Results as given in the nanobody polyreactivity screen of Harvey et al. (2022).

Assay: yeast display, Sf9 membrane polyspecificity reagent, FACS + sequencing; frameworks hold sequencing errors
Procedure, shortened: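 In a synthetic yeast display library (Saccharomyces cerevisiae BJ5465), nanobody expression was induced with galactose for 36–48 hours. FACS gates were set low and high (top ~1%) using anti-HA fluorescence for expression and streptavidin fluorescence for binding of the Sf9 membrane reagent. Each polyreactivity label is drawn from the gate of origin.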

Sequence	polyreactivity (PSR sort gate)
QVQLVESGGGLVQAGGSLRLSCAASGNTFPSYAMGWYRQAPGKERQLVAAITSGGRTYYADSVKGRFTISRDNAKNTVYLQMNSLKPEDTAVYYCAADWVVRYPWYRYYYWGPGTQVTVSS	high polyreactivity
QVQLVESGGGLVQAGGSLRLSCAASGNTFRWYVMGWYRQAPGKERELVAAITSSGSTTYYADSVKGRFTISRDNAKNTVYLQMNSLKPEDTAVYYCAARNYGPYDYWGQGTQVTVSS	low polyreactivity
QVQLVESGGGLVQAGGSLRLSCAASGNTFSPYGMGWYRQAPGKERELVAGITISDDSTYYADSVKGRFTISRDNAKNTVYLQMNSLKPEDTAVYYCNARYLSWYFKYLYDYWGQGTQVTVSS	low polyreactivity
QVQLVESGGGLVQAGGSLRLSCAASGNTFTFYAMGWYRQAPGKERELVASITGRGGSTYYADSVKGRFTISRDNAKNTVYLQMNSLKPEDTAVYYCNADYNSYRYRPPTTRDYWGQGTQVTVSS	low polyreactivity
QVQLVESGGGLVQAGGSLRLSCAASGNTFVRYDMGWYRQAPGKEREFVAAITASGGSTYADSVKGRFTISRDNAKNTVYLQMNSLKPEDTAVYYCNAGNSSTGVDRYDYWGQGTQVTVSS	low polyreactivity
QVQLVESGGGLVQAGGSLRLSCAASGNTFVSNAMGWYRPAPGKERELVAAISSTGNTNYADSVKGRFTISRDNAKNTDYLQMNSLKPEDTAVYYCAKGDKRAYVAYKEGSWGQGTQVTVSS	low polyreactivity
QVQLVESGGGLVQAGGSLRLSCAASGNTFVSNARGWYRQAPGKERELVAAIDSGGSTNYADSVKGRFTISRDNAKNTVYLQMNSLKPEDTAVYYCNRTSVYYYYWGQGTQVTVSS	low polyreactivity
QVQLVESGGGLVQAGGSLRLSCAASGNTFVTNDMGWYRQAPRKERELVADISWGGASTYYADSVKGRFTISRDNAKNTVYLQMNSLIPEDTAVYYCYATDDITYTYSYDYWGQGTQVTVSS	low polyreactivity
QVQLVESGGGLVQAGGSLRLSCAASGNTFWFYGMGWYRQAPGKERELVAAITSGGSTDYADSVKWRFTISRDNAKNTVYLQMNSLKPEDTAVYYCAAEPVAYYGSSYGYWGQGTQVTVSS	low polyreactivity
QVQLVESGGGLVQAGGSLRLSCAASGNTFWSYAMGWYRQAPGKERELVAAISFSGGSTNYADSVKGRFTISRDNAKNTVYLQMNSLKPEDTAVYYCAAYFYAPLTYYSWYDYWGQGTQVTVSS	high polyreactivity
QVQLVESGGGLVQAGGSLRLSCAASGNTFWSYAMGWYRQAPGNERELVAAITQRGGSTYYADSVKGRFTISRDNAKNTVYLQMNSLKPEDTAVYYCAADTSYKGDYWGQGTQVTVSS	high polyreactivity
QVQLVESGGGLVQAGGSLRLSCAASGNTFWYNAMGWYRQSPGKERELVAAISYSGGGTYYADSVKGRFTISRDNAKNTVYLQMNSLKPEDTAVYYCAADTLQRAFVLNDYWGQGTQVTVSS	low polyreactivity
QVQLVESGGGLVQAGGSLRLSCAASGNTFYAYAMGWYRQAPGKERELVAAIARGGNTYYADSVKGRFTISRDNAKNTVYLQMNSLKPEDTAVYYCNAYYPIRSSPYGYYYWGQGTQVTVSS	high polyreactivity
QVQLVESGGGLVQAGGSLRLSCAASGNTFYAYTMGLYIQAPGKERELVAAISSDGSTNYADSVKGRFTISRDNAKNTVYLQMNSLKPEDTAVYYCAVTLEVSTVRDYDYWGQGTQVTVSS	low polyreactivity
QVQLVESGGGLVQAGGSLRLSCAASGNTFYGYAMGWYRQAPGKERELVASITLSGDSTYYSDSVKGRFTISRDNAKNTVYLQMNSLKPEDTAGYYCAFDGYWYGGIFYYGGQGTQVTVSS	low polyreactivity
QVQLVESGGGLVQAGGSLRLSCAASGNTFYINAMGWYRQAPGKERELVAAINYSGDSTYADSVKGRFTITRDNAKNTFYLQMNSLKPEDTAVYYCAADTGWYDDWTHDYWGHGTQVTVSS	low polyreactivity
QVQLVESGGGLVQAGGSLRLSCAASGNTFYIYAMGWYRQAPGKERELVAAISRGGGSTYYAESVKGRFTISRDNAMNTVYLQLNSLKPEDTAVYYCAADYYYSRYDYWGQGTQVTVSS	high polyreactivity
QVQLVESGGGLVQAGGSLRLSCAASGNTFYKYAMRWYRQAPGKERELVADISWSGGSTYYADSVKGRFTISRDNAKNTVYLQMNSLKPEDTAVYYCNADTPVWDGHAYPVDYWGQGTQVTVSS	low polyreactivity
QVQLVESGGGLVQAGGSLRLSCAASGNTFYLYAMGWYRKAPGKERELVASITGGTRTNYADSVKGRFTISRDNAKNTVYLQMNSLKPEDTAVYYCAVRYYWRRMNYWGQGTQVTVSS	high polyreactivity
QVQLVESGGGLVQAGGSLRLSCAASGNTFYNVYAMGWYRQATGKERELVAAITARGSTYADSVKGRFTISRDNAKNTVYLQMNSLKPEDNAVYYGATRSSWLYRGLYYNGFNYWGQGTQVTVSS	high polyreactivity
QVQLVESGGGLVQAGGSLRLSCAASGNTFYPKDMGWYRQAPGKERELVAAITTNDGDTYYADSVKGRFTISRDNAKNTVYLQMNRLKPEDTAVYYCAADSGSTSEYEYWGQGTQVTVSS	low polyreactivity

Sequence	polyreactivity (PSR sort gate)
QVQLVESGGGLVQAGGSLRLSCAASGNTFYPYAMGWYRQAPGKERELVAAITSSGGSTYYADSVNGRFTISRDNAKNTVYLQMNSLKPEDTAVYYCAAYIYFLGMDYWGQGTQVTVSS	low polyreactivity
QVQLVESGGGLVQAGGSLRLSCAASGNTFYRNAMGWYRQAPGKERELVAAITFSTGRTYYADSVKGRFTISRDNAKNTVYLQLNSLKPEDTAVYYCAAFYSGGDYWGQCTQVTVSS	high polyreactivity
QVQLVESGGGLVQAGGSLRLSCAASGNTFYYAMGWYTQAPGKERELVASIRTGGSTNYADSVKGRFTISRDNAKNTVYLQMNSLKPEDTAVYYCNRDGTYSHTGWDYWRPYEYWGQGTQVTVSS	low polyreactivity
QVQLVESGGGLVQAGGSLRLSCAASGNTIFAYVMGWYRQAAGKEREFVAAISRRDGRTYYADSVKGRFTISRDNAKNTVYLQMNSLKPEDTAVYYCNAQRHFWHLYAPSSFDYWGQGTQVTVSS	low polyreactivity
QVQLVESGGGLVQAGGSLRLSCAASGNTINFYAMGWYRQAPGKEREMVAAISSGGSTNYADSVKGRFTISRDNAKNTVYLQMNSLKPEDSAVYYCAKDVWYLVYYHWKSNRVWQYDYWGQGTQVTVSS	low polyreactivity
QVQLVESGGGLVQAGGSLRLSCAASGNTIVTNTMGWYRQAPGKERELVAAIDSGGDTYYADSVKGRFTISRDNAKNTVYLQMNSLKPEDTAVYYCAAVGDPNYFSNRRYEYWGQGTQVTVSS	low polyreactivity
QVQLVESGGGLVQAGGSLRLSCAASGNTLPQNAMGWYRQAPGKERELVAAISRSGGSTYYADSVKGRFTISRDNAKNTVYLQMNSLKPEDTAVYYCAAKLTVSGYRYGYWGQGTQVTVSS	high polyreactivity
QVQLVESGGGLVQAGGSLRLSCAASGNTLRTYGMGWYRQAPGKEREFVAAITYSGGSTYYADSVKGRFTISRDNAKNTVYLQMNSLKPEDTAVYYCAARYRSHYRRITPYDSWGQGTQVTVSS	high polyreactivity
QVQLVESGGGLVQAGGSLRLSCAASGNTLSYYTMGWYRQAPGKERELVAAISRGGGSTYYADSVKGRFTISRDNSMNTVYLHMNSLKPEDTAVYYCAAEAYRYAWYDYWGQGTQVTVSS	high polyreactivity
QVQLVESGGGLVQAGGSLRLSCAASGNTLYQYAMGWYRQAPGKERELVAAISGIGDSTYYADSVKGRFTISRDNAKNTVYLQMNSLKPEDTAVYYCAADGEYRYDLEYESWGQGTQVTVSS	low polyreactivity
QVQLVESGGGLVQAGGSLRLSCAASGNTLYSYAMGWYRQAPGKERELVAAITKSGGRTYYADSVKGRFTISRDNAKNTVYLQMNSLKPEDTADYYCNAVFLPTYHFDYWGQGTQVTVSS	high polyreactivity
QVQLVESGGGLVQAGGSLRLSCAASGNTSAVYAMGWYRQAPGKERELVASITWSDGITYYADSVKGRFTISRDNAKNTVYLQMNSLKPEDTAVYYCAKSTLYSVEYDYWGEGTQVTVSS	low polyreactivity
QVQLVESGGGLVQAGGSLRLSCAASGNTVKGYAMGWYRQAPGKERELVAAISWSGSSTYYADSVKGRFTISRDNAKNTVYLQMNSLKPEDTAVYYCNRKYLGRYASVYGYGYWGQGTQVTVSS	high polyreactivity
QVQLVESGGGLVQAGGSLRLSCAASGPMFTSNAMGWYRQAPGKERELVAAISRRGTRTYYADSVKGRFTISRDNAKNTVYLQMNSLKPEDTAVYYCAATTGEQEDYWGQGTQVTVSS	high polyreactivity
QVQLVESGGGLVQAGGSLRLSCAASGPTFDVYAMGWYRQAPGKERELVATISWRGTSTYYADSVKGRFTISRDNAKNTVYLQMNSLKPEDTAVYYCAAEVYYEYYYWRYYWGQGTQVTVSS	high polyreactivity
QVQLVESGGGLVQAGGSLRLSCAASGPTFGVNAMGWYRQAPGKERELVAVISSTGSTNYADSVKGRFTISRDNAKNTVYLQMNSLKPEDTAVYYCAVGPNSVGNRSYGFDYWGQGTQVTVSS	low polyreactivity
QVQLVESGGGLVQAGGSLRLSCAASGPTFYKYAMGWYRQAPGKEREFVATITRRGGSTYYADSVKGRFTISRDNAKNTVYLQMNSLNPEDTAVYYCAKEIFLKGPDGHDYWGQGTQVTVSS	low polyreactivity
QVQLVESGGGLVQAGGSLRLSCAASGPTFYYYDMGLYRPAPGKERELVAAISATGGRTYYADSVKGRFTISRDNAKNTVYLQMNSLKPEDTAVYYCAAETPYLRRRLGMDYWGQGTQVTVSS	high polyreactivity
QVQLVESGGGLVQAGGSLRLSCAASGRFFVPYFIGSYRQAPGTERELVASISDSDTSTYYADSVKGRFTISRDNAKNTVYLQMNSLKPEDTAVYYCNVDYWGQGTQVTLSS	low polyreactivity
QVQLVESGGGLVQAGGSLRLSCAASGRIFADYAMGWNRHAPGKQRELVAAITWSGDRTYYADSVKGRFTISRDNAKNTVYLQMNSLKPEDTAVYYCAARARLRRYNYWGQGTQVTVSS	high polyreactivity
